Two molecules from publication PMC4516985, “Transactivation of human osteoprotegerin promoter by GATA-3” can be followed below.

Series [1] deals with T1, GATA-3 (Homo sapiens, UniProt P23771 1-443). Nature of the series: competition; excess unlabeled mutant did not compete with biotin-G3RE2; protein source conflict as above; LightShift EMSA Optimization & Control Kit (Thermo 20148) per manufacturer, 6% DNA retardation gel; buffer, salt, pH and temperature not stated. The conditions noted are these: protein: commercial; label: none. In general terms: In EMSA bound probe runs differently from free probe, usually more slowly.
T1 sequence (P23771 whole entry): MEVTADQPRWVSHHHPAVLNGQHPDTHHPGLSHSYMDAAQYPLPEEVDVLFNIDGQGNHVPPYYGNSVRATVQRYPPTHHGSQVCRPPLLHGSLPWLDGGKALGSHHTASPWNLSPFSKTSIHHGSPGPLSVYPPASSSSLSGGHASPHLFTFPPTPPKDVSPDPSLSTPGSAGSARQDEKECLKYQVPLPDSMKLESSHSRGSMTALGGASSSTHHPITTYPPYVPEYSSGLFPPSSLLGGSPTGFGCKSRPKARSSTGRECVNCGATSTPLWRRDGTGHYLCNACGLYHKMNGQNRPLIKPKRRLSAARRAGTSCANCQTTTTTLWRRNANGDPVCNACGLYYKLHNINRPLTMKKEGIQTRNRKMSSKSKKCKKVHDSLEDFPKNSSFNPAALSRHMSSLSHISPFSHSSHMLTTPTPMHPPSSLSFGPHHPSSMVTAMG

Series [2] addresses T1, GATA-3. Nature of the series: competition; excess unlabeled mutant did not compete with biotin-G3RE1; protein source conflict as above; LightShift EMSA Optimization & Control Kit (Thermo 20148) per manufacturer, 6% DNA retardation gel; buffer, salt, pH and temperature not stated. The conditions noted are these: protein: commercial; label: none.

B1: mutant G3RE2 probe (dsDNA)
DNA 1: TAACTACCCCAGAGTTGAAGGAGTGA
DNA 2: TCACTCCTTCAACTCTGGGGTAGTTA
For B1, the binding result in series [1] is “no binding”.

B2: mutant G3RE1 probe (dsDNA)
DNA 1: TAGGAAGCTCCCATGGCAATAGCCCT
DNA 2: AGGGCTATTGCCATGGGAGCTTCCTA
For B2, the binding result in series [2] is “no binding”.
